These results are taken from paper PMC3894988, “Human Variants in the Neuronal Basic Helix-Loop-Helix/Per-Arnt-Sim (bHLH/PAS) Transcription Factor Complex NPAS4/ARNT2 Disrupt Function” (PLoS ONE, 2014).

Test [1] has as its target endogenous ARNT2 (HEK293T) (human (endogenous in HEK293T)) (UniProt Q9HBZ2).
Test [2] deals with ARNT2, overexpressed (human Aryl hydrocarbon Receptor Nuclear Translator 2) (human, UniProt Q9HBZ2 1-717). Put plainly: cell-based or functional assay.
ARNT2, overexpressed (human Aryl hydrocarbon Receptor Nuclear Translator 2), sequence (Q9HBZ2 whole entry): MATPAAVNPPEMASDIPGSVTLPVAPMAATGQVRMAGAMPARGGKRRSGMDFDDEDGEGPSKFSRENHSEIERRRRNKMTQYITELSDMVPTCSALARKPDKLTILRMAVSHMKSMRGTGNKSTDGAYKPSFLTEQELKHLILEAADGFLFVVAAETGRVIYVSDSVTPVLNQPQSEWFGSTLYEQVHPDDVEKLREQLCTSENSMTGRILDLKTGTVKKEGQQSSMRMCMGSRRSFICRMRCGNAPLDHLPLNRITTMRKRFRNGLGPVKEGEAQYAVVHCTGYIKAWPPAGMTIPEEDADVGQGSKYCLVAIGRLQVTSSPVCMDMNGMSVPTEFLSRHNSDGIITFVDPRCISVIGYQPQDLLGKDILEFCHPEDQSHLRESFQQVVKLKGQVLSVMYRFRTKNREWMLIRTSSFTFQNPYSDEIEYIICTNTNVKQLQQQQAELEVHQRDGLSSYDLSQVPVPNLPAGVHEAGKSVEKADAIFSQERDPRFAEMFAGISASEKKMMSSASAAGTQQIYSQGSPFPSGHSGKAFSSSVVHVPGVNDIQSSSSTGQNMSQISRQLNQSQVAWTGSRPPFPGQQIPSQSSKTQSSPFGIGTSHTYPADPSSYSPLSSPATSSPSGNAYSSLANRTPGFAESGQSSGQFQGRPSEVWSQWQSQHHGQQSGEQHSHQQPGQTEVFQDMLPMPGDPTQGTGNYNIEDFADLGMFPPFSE

endogenous ARNT2 (HEK293T) (human (endogenous in HEK293T)), sequence (Q9HBZ2 whole entry): as above

B1: NPAS4.F147S-mycFlag (natural protein)
chain: MYRSTKGASKARRDQINAEIRNLKELLPLAEADKVRLSYLHIMSLACIYTRKGVFFAGGTPLAGPTGLLSAQELEDIVAALPGFLLVFTAEGKLLYLSESVSEHLGHSMVDLVAQGDSIYDIIDPADHLTVRQQLTLPSALDTDRLSRCRFNTSKSLRRQSAGNKLVLIRGRFHAHPPGAYWAGNPVFTAFCAPLEPRPRPGPGPGPGPASLFLAMFQSRHAKDLALLDISESVLIYLGFERSELLCKSWYGLLHPEDLAHASAQHYRLLAESGDIQAEMVVRLQAKTGGWAWIYCLLYSEGPEGPITANNYPISDMEAWSLRQQLNSEDTQAAYVLGTPTMLPSFPENILSQEECSSTNPLFTAALGAPRSTSFPSAPELSVVSASEELPRPSKELDFSYLTFPSGPEPSLQAELSKDLVCTPPYTPHQPGGCAFLFSLHEPFQTHLPTPSSTLQEQLTPSTATFSDQLTPSSATFPDPLTSPLQGQLTETSVRSYEDQLTPCTSTFPDQLLPSTATFPEPLGSPAHEQLTPPSTAFQAHLDSPSQTFPEQLSPNPTKTYFAQEGCSFLYEKLPPSPSSPGNGDCTLLALAQLRGPLSVDVPLVPEGLLTPEASPVKQSFFHYSEKEQNEIDRLIQQISQLAQGMDRPFSAEAGTGGLEPLGGLEPLDSNLSLSGAGPPVLSLDLKPWKCQELDFLADPDNMFLEETPVEDIFMDLSTPDPSEEWGSGDPEAEGPGGAPSPCNNLSPEDHSFLEDLATYETAFETGVSAFPYDGFTDELHQLQSQVQDSFHEDGSGGEPTF
In the case of B1, the induction of BDNF exon I mRNA in 293TREX cells (quantitative real-time PCR), reduction against WT NPAS4 in test [1] turned out to be 90%.

B2: NPAS4.F147A-mycFlag (natural protein, human, UniProt Q8IUM7 1-802, looked up)
chain: MYRSTKGASKARRDQINAEIRNLKELLPLAEADKVRLSYLHIMSLACIYTRKGVFFAGGTPLAGPTGLLSAQELEDIVAALPGFLLVFTAEGKLLYLSESVSEHLGHSMVDLVAQGDSIYDIIDPADHLTVRQQLTLPSALDTDRLARCRFNTSKSLRRQSAGNKLVLIRGRFHAHPPGAYWAGNPVFTAFCAPLEPRPRPGPGPGPGPASLFLAMFQSRHAKDLALLDISESVLIYLGFERSELLCKSWYGLLHPEDLAHASAQHYRLLAESGDIQAEMVVRLQAKTGGWAWIYCLLYSEGPEGPITANNYPISDMEAWSLRQQLNSEDTQAAYVLGTPTMLPSFPENILSQEECSSTNPLFTAALGAPRSTSFPSAPELSVVSASEELPRPSKELDFSYLTFPSGPEPSLQAELSKDLVCTPPYTPHQPGGCAFLFSLHEPFQTHLPTPSSTLQEQLTPSTATFSDQLTPSSATFPDPLTSPLQGQLTETSVRSYEDQLTPCTSTFPDQLLPSTATFPEPLGSPAHEQLTPPSTAFQAHLDSPSQTFPEQLSPNPTKTYFAQEGCSFLYEKLPPSPSSPGNGDCTLLALAQLRGPLSVDVPLVPEGLLTPEASPVKQSFFHYSEKEQNEIDRLIQQISQLAQGMDRPFSAEAGTGGLEPLGGLEPLDSNLSLSGAGPPVLSLDLKPWKCQELDFLADPDNMFLEETPVEDIFMDLSTPDPSEEWGSGDPEAEGPGGAPSPCNNLSPEDHSFLEDLATYETAFETGVSAFPYDGFTDELHQLQSQVQDSFHEDGSGGEPTF
Consider B2, for which the “activity on the 6xCME-Luc luciferase reporter gene in HEK293T cells, percent of WT NPAS4” value in test [2] was ~65 % of wt.
